# Experimental data from PMC6561178, “Caulobacter crescentus Hfq structure reveals a conserved mechanism of RNA annealing regulation”.
# T1: Cc78 (Caulobacter crescentus NA1000, UniProt B8GW92 1-78, del79-82)
# T1 sequence: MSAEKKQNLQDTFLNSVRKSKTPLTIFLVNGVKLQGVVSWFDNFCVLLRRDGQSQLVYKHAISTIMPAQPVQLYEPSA
# B1: hns (structured_RNA)
# RNA: GAACAAACCACCCCAAUAUAAGUUUGAGAUUACUACAAUGAGCGAAGCACUUAAAAUUCUGAACAACAUCCGUACUCUUCGUGCGCAGGCAAGAGAAUGUACACUUGAAACGCUGGAAGAA
# B2: cfa (structured_RNA)
# RNA: GGUUGUUAAAGCUACGAUAAAUAUUAUGUUUUUACGGGGACAGGAUCGUUCCCGACUCACUAUGGAUAGUCAUUUCGGCAAGGGUUCCUCCUUUCCCUCUGUUCUACGUCGGAUUAUAGACUCGCGGUUUUUUCUGCGAGAUUUCUCACAAAGCCCAAAAAGCGUCUACGCUGUUUUAAGGUUCUGAUCACCGACCAGUGAUGGAGAAACUAUGAGUUCAUCGUGUAUAGAAGAAGUCAGUGUACCGGAUGACAAC
# B3: R133 (structured_RNA)
# RNA: GGAGCCCUUUCGGGCGUUUCCUCCCAAUGACUCGGCCGCCCUCUUCUCCUGGAGGGCGGCCGUUCUUUU
# B4: RybB (structured_RNA)
# RNA: GGCCACUGCUUUUCUUUGAUGUCCCCAUUUUGUGGAGCCCAUCAACCCCGCCAUUUCGGUUCAAGGUUGAUGGGUUUUUU
# B5: RydC (structured_RNA)
# RNA: GGCUUCCGAUGUAGACCCGUAUUCUUCGCCUGUACCACGGGUCGGUUUUAGUACAGGCGUUUUCUU
# B6: ChiX (structured_RNA)
# RNA: GGGACACCGUCGCUUAAAGUGACGGCAUAAUAAUAAAAAAAUGAAAUUCCUCUUUGACGGGCCAAUAGCGAUAUUGGCCAUUUUUUU
# B7: DsrA (structured_RNA)
# RNA: GGGAACACAUCAGAUUUCCUGGUGUAACGAAUUUUUUAAGUGCUUCUUGCUUAAGCAAGUUUCAUCCCGACCCCCUCAGGGUCGGGAUUUUUUU
# Legend:
# [1] = biological target: Caulobacter crescentus Hfq (Caulobacter crescentus); test: crystal structure; hanging-drop vapor diffusion; Cc Hfq at 7 mg/mL; 0.2 M sodium thiocyanate, 17% PEG 3350; 2.15 Å; four hexamers in the asymmetric unit, space group P4_(3)
# Ec Hfq (Hfq102) [2] = biological target: T2, Ec Hfq (Hfq102) (Escherichia coli, UniProt P0A6X3 1-102); test: EMSA; Hill n 4.4; EMSA: 34 mM Tris-HCl pH 7.5, 50 mM NaCl, 50 mM KCl, 50 mM NH4Cl, 11.4 mM EDTA, 12% glycerol, 30 C, 30 min, ~1 nM 32P-RNA, Kd in Hfq6; anisotropy: 10 mM Tris-HCl; conditions: protein: recombinant; tags: untagged; chain copies: 6; label: 32P
# Ec Hfq (Hfq102) [3] = biological target: T2, Ec Hfq (Hfq102); test: EMSA; Hill n 2.2; EMSA: 34 mM Tris-HCl pH 7.5, 50 mM NaCl, 50 mM KCl, 50 mM NH4Cl, 11.4 mM EDTA, 12% glycerol, 30 C, 30 min, ~1 nM 32P-RNA, Kd in Hfq6; anisotropy: 10 mM Tris-HCl; conditions: protein: recombinant; tags: untagged; chain copies: 6; label: 32P
# Cc78 [4] = biological target: T1, Cc78; test: EMSA; Hill n 1.2; EMSA: 34 mM Tris-HCl pH 7.5, 50 mM NaCl, 50 mM KCl, 50 mM NH4Cl, 11.4 mM EDTA, 12% glycerol, 30 C, 30 min, ~1 nM 32P-RNA, Kd in Hfq6; anisotropy: 10 mM Tris-HCl; conditions: protein: recombinant; tags: untagged after self-cleaved intein; chain copies: 6; label: 32P; stem-loops
# Ec65 [5] = biological target: T3, Ec65 (Escherichia coli, UniProt P0A6X3 1-65, del66-102); test: EMSA; Hill n 1.7; EMSA: 34 mM Tris-HCl pH 7.5, 50 mM NaCl, 50 mM KCl, 50 mM NH4Cl, 11.4 mM EDTA, 12% glycerol, 30 C, 30 min, ~1 nM 32P-RNA, Kd in Hfq6; anisotropy: 10 mM Tris-HCl; conditions: protein: recombinant; tags: untagged; chain copies: 6; label: 32P; stem-loops
# EcCc Hfq [6] = biological target: T4, EcCc Hfq (Escherichia coli / Caulobacter …, UniProt P0A6X3 1-67+B8GW92:71-82, internal_change); test: EMSA; Hill n 1.8; EMSA: 34 mM Tris-HCl pH 7.5, 50 mM NaCl, 50 mM KCl, 50 mM NH4Cl, 11.4 mM EDTA, 12% glycerol, 30 C, 30 min, ~1 nM 32P-RNA, Kd in Hfq6; anisotropy: 10 mM Tris-HCl; conditions: protein: recombinant; tags: untagged; chain copies: 6; label: 32P; stem-loops
# Ec Hfq (Hfq102) [7] = biological target: T2, Ec Hfq (Hfq102); test: EMSA; Hill n 1; Tris-glycine gel; EMSA: 34 mM Tris-HCl pH 7.5, 50 mM NaCl, 50 mM KCl, 50 mM NH4Cl, 11.4 mM EDTA, 12% glycerol, 30 C, 30 min, ~1 nM 32P-RNA, Kd in Hfq6; anisotropy: 10 mM Tris-HCl; conditions: protein: recombinant; tags: untagged; chain copies: 6; label: 32P; stem-loops
# Ec65 [8] = biological target: T3, Ec65; test: EMSA; Hill n 3.1; EMSA: 34 mM Tris-HCl pH 7.5, 50 mM NaCl, 50 mM KCl, 50 mM NH4Cl, 11.4 mM EDTA, 12% glycerol, 30 C, 30 min, ~1 nM 32P-RNA, Kd in Hfq6; anisotropy: 10 mM Tris-HCl; conditions: protein: recombinant; tags: untagged; chain copies: 6; label: 32P; stem-loops
# Ec Hfq (Hfq102) [9] = biological target: T2, Ec Hfq (Hfq102); test: EMSA; Hill n 4.1; EMSA: 34 mM Tris-HCl pH 7.5, 50 mM NaCl, 50 mM KCl, 50 mM NH4Cl, 11.4 mM EDTA, 12% glycerol, 30 C, 30 min, ~1 nM 32P-RNA, Kd in Hfq6; anisotropy: 10 mM Tris-HCl; conditions: protein: recombinant; tags: untagged; chain copies: 6; label: 32P; stem-loops
# EcCc Hfq [10] = biological target: T4, EcCc Hfq; test: EMSA; Hill n 4.5; EMSA: 34 mM Tris-HCl pH 7.5, 50 mM NaCl, 50 mM KCl, 50 mM NH4Cl, 11.4 mM EDTA, 12% glycerol, 30 C, 30 min, ~1 nM 32P-RNA, Kd in Hfq6; anisotropy: 10 mM Tris-HCl; conditions: protein: recombinant; tags: untagged; chain copies: 6; label: 32P; stem-loops
# Cc78 [11] = biological target: T1, Cc78; test: EMSA; Hill n 5.5; EMSA: 34 mM Tris-HCl pH 7.5, 50 mM NaCl, 50 mM KCl, 50 mM NH4Cl, 11.4 mM EDTA, 12% glycerol, 30 C, 30 min, ~1 nM 32P-RNA, Kd in Hfq6; anisotropy: 10 mM Tris-HCl; conditions: protein: recombinant; tags: untagged after self-cleaved intein; chain copies: 6; label: 32P; stem-loops
# Ec Hfq (Hfq102) [12] = biological target: T2, Ec Hfq (Hfq102); test: EMSA; Hill n 13; EMSA: 34 mM Tris-HCl pH 7.5, 50 mM NaCl, 50 mM KCl, 50 mM NH4Cl, 11.4 mM EDTA, 12% glycerol, 30 C, 30 min, ~1 nM 32P-RNA, Kd in Hfq6; anisotropy: 10 mM Tris-HCl; conditions: protein: recombinant; tags: untagged; chain copies: 6; label: 32P; folded
# EcCc Hfq [13] = biological target: T4, EcCc Hfq; test: EMSA; Hill n 1.0; EMSA: 34 mM Tris-HCl pH 7.5, 50 mM NaCl, 50 mM KCl, 50 mM NH4Cl, 11.4 mM EDTA, 12% glycerol, 30 C, 30 min, ~1 nM 32P-RNA, Kd in Hfq6; anisotropy: 10 mM Tris-HCl; conditions: protein: recombinant; tags: untagged; chain copies: 6; label: 32P; folded
# Cc78 [14] = biological target: T1, Cc78; test: EMSA; Hill n 1.6; EMSA: 34 mM Tris-HCl pH 7.5, 50 mM NaCl, 50 mM KCl, 50 mM NH4Cl, 11.4 mM EDTA, 12% glycerol, 30 C, 30 min, ~1 nM 32P-RNA, Kd in Hfq6; anisotropy: 10 mM Tris-HCl; conditions: protein: recombinant; tags: untagged after self-cleaved intein; chain copies: 6; label: 32P; folded
# Ec65 [15] = biological target: T3, Ec65; test: EMSA; Hill n 3.7; EMSA: 34 mM Tris-HCl pH 7.5, 50 mM NaCl, 50 mM KCl, 50 mM NH4Cl, 11.4 mM EDTA, 12% glycerol, 30 C, 30 min, ~1 nM 32P-RNA, Kd in Hfq6; anisotropy: 10 mM Tris-HCl; conditions: protein: recombinant; tags: untagged; chain copies: 6; label: 32P; folded
# Ec65 [16] = biological target: T3, Ec65; test: EMSA; Hill n 1.0; EMSA: 34 mM Tris-HCl pH 7.5, 50 mM NaCl, 50 mM KCl, 50 mM NH4Cl, 11.4 mM EDTA, 12% glycerol, 30 C, 30 min, ~1 nM 32P-RNA, Kd in Hfq6; anisotropy: 10 mM Tris-HCl; conditions: protein: recombinant; tags: untagged; chain copies: 6; label: 32P; stem-loops
# Cc78 [17] = biological target: T1, Cc78; test: EMSA; Hill n 3.5; EMSA: 34 mM Tris-HCl pH 7.5, 50 mM NaCl, 50 mM KCl, 50 mM NH4Cl, 11.4 mM EDTA, 12% glycerol, 30 C, 30 min, ~1 nM 32P-RNA, Kd in Hfq6; anisotropy: 10 mM Tris-HCl; conditions: protein: recombinant; tags: untagged after self-cleaved intein; chain copies: 6; label: 32P; stem-loops
# Ec Hfq (Hfq102) [18] = biological target: T2, Ec Hfq (Hfq102); test: EMSA; Hill n 10.1; EMSA: 34 mM Tris-HCl pH 7.5, 50 mM NaCl, 50 mM KCl, 50 mM NH4Cl, 11.4 mM EDTA, 12% glycerol, 30 C, 30 min, ~1 nM 32P-RNA, Kd in Hfq6; anisotropy: 10 mM Tris-HCl; conditions: protein: recombinant; tags: untagged; chain copies: 6; label: 32P; stem-loops
# EcCc Hfq [19] = biological target: T4, EcCc Hfq; test: EMSA; Hill n 30.2; EMSA: 34 mM Tris-HCl pH 7.5, 50 mM NaCl, 50 mM KCl, 50 mM NH4Cl, 11.4 mM EDTA, 12% glycerol, 30 C, 30 min, ~1 nM 32P-RNA, Kd in Hfq6; anisotropy: 10 mM Tris-HCl; conditions: protein: recombinant; tags: untagged; chain copies: 6; label: 32P; stem-loops
# Ec65 [20] = biological target: T3, Ec65; test: EMSA; Hill n 2.4; EMSA: 34 mM Tris-HCl pH 7.5, 50 mM NaCl, 50 mM KCl, 50 mM NH4Cl, 11.4 mM EDTA, 12% glycerol, 30 C, 30 min, ~1 nM 32P-RNA, Kd in Hfq6; anisotropy: 10 mM Tris-HCl; conditions: protein: recombinant; tags: untagged; chain copies: 6; label: 32P; stem-loops
# Cc78 [21] = biological target: T1, Cc78; test: EMSA; Hill n 2.5; EMSA: 34 mM Tris-HCl pH 7.5, 50 mM NaCl, 50 mM KCl, 50 mM NH4Cl, 11.4 mM EDTA, 12% glycerol, 30 C, 30 min, ~1 nM 32P-RNA, Kd in Hfq6; anisotropy: 10 mM Tris-HCl; conditions: protein: recombinant; tags: untagged after self-cleaved intein; chain copies: 6; label: 32P; stem-loops
# EcCc Hfq [22] = biological target: T4, EcCc Hfq; test: EMSA; Hill n 8.7; EMSA: 34 mM Tris-HCl pH 7.5, 50 mM NaCl, 50 mM KCl, 50 mM NH4Cl, 11.4 mM EDTA, 12% glycerol, 30 C, 30 min, ~1 nM 32P-RNA, Kd in Hfq6; anisotropy: 10 mM Tris-HCl; conditions: protein: recombinant; tags: untagged; chain copies: 6; label: 32P; stem-loops
# Ec Hfq (Hfq102) [23] = biological target: T2, Ec Hfq (Hfq102); test: EMSA; Hill n 11.9; EMSA: 34 mM Tris-HCl pH 7.5, 50 mM NaCl, 50 mM KCl, 50 mM NH4Cl, 11.4 mM EDTA, 12% glycerol, 30 C, 30 min, ~1 nM 32P-RNA, Kd in Hfq6; anisotropy: 10 mM Tris-HCl; conditions: protein: recombinant; tags: untagged; chain copies: 6; label: 32P; stem-loops
molecule,measurement,setting,value
Caulobacter crescentus Hfq (natural protein),stoichiometry N,[1],6
B1,Kd,Ec Hfq (Hfq102) [2],19.7 ± 0.4 nM
B2,Kd,Ec Hfq (Hfq102) [3],19 ± 0.5 nM
B3,Kd,Cc78 [4],242 ± 17 nM
same,Kd,Ec65 [5],21.6 ± 1.3 nM
same,Kd,EcCc Hfq [6],232 ± 46 nM
same,Kd,Ec Hfq (Hfq102) [7],14.7 ± 1.3 nM
B4,Kd,Ec65 [8],27.1 ± 0.9 nM
same,Kd,Ec Hfq (Hfq102) [9],21.5 ± 2 nM
same,Kd,EcCc Hfq [10],37.3 ± 6.2 nM
same,Kd,Cc78 [11],68.1 ± 1.9 nM
B5,Kd,Ec Hfq (Hfq102) [12],22.1 ± 0.2 nM
same,Kd,EcCc Hfq [13],237 ± 34 nM
same,Kd,Cc78 [14],167 ± 11 nM
same,Kd,Ec65 [15],12.3 ± 0.4 nM
B6,Kd,Ec65 [16],95 ± 27 nM
same,Kd,Cc78 [17],32.4 ± 0.4 nM
same,Kd,Ec Hfq (Hfq102) [18],20.3 ± 0.4 nM
same,Kd,EcCc Hfq [19],35.8 ± 0.4 nM
B7,Kd,Ec65 [20],12.6 ± 1.9 nM
same,Kd,Cc78 [21],62.2 ± 4.4 nM
same,Kd,EcCc Hfq [22],42.5 ± 1 nM
same,Kd,Ec Hfq (Hfq102) [23],21.1 ± 0.3 nM
